The values below come from the supplement of paper PMC9170038.

This data set concerns MS2 coat protein. Description: apparent KD of MS2 coat protein; designed switch direction (-1 OFF switch, 1 ON switch): 1; higher = weaker reporter binding. An outline of the steps: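 Designed RNA switches with common flanks were made on Illumina chips by stalled E. coli RNA polymerase. Titration with SNAP-549-labelled MS2 coat protein doubled from 0.7 or 1.5 nM up to 3 µM. Apparent KD is each design's median over clusters after curve-fitting normalised fluorescence.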

The mark [1] stands for this setting: Eterna round: R95, input ligand: FMN 200 uM.
The mark [2] stands for this setting: Eterna round: R95, input ligand: microRNA oligo, concentration not stated.
The mark [3] stands for this setting: Eterna round: R95, input ligand: none.
Where [4] appears, read: input ligand: microRNA oligo, concentration not stated.

Take “CUAUCUACAGGUGUCUUUGCUCGUCUUAUACAUGAGGAUCACCCAUGUUAUAGCCCGGUGCUUGCGCUGGGCUGAUU [JL ViennaUCT Tearor mod 6] (puzzle: Sensor for hsa-mir-208a)”: the “apparent KD of MS2 coat protein” value reads like this: under setting [1], 79.8 nM; under setting [2], 13.2 nM; under setting [3], 95.7 nM.
On the same counts, the results for “AUAAAACAUGAGGAUCACCCAUGUCAACAAAGUCGAGGAUAUGGGCAAAUAAAUUAAGAACCAGAAGGCGAAUAAU [salish99_ss1_r3_021] (puzzle: Same State 1)” are 36.9 nM, 236 nM and 313 nM.
In the case of “AACAAAUACACAGGAUAUACAGUGGCAACCACUGUAGAAGGGUGGGCGGGUUCCAACAUGAGGAUCACCCAUGUACCCAAUAAC [Atbiladi] (Eterna round: R96, puzzle: Same State NG 1)”, the “apparent KD of MS2 coat protein” value by setting is: (input ligand: FMN 200 uM) 521 nM; under setting [4], 535 nM; (input ligand: none) 882 nM.
The matching figures for “AGCCUGAGUCGAGGAUAUUAUGGAUCCUCUAAUACAUGAGGAUCACCCAUGUAAUUAAUUAUACAUGAGAAGGCGACUCAGGCA [SSNG2/12-A3] (Eterna round: R96, puzzle: Same State NG 2)”: 98.7 nM, 69.4 nM and 25.5 nM.
On the same counts, the results for “AUGAAGAAUUAAGGAUAUUGAAUACAUAUGUUUAACAUGAGGAUCACCCAUGUGGGUUGCGGUAUCGAGAAGGUAAAAUAAUAG [Mat - same State NG 2 - JL mod - D91] (Eterna round: R96, puzzle: Same State NG 2)” are 162 nM, 79.4 nM and 136 nM.
As for “GCUACCAAUAAAGCCAACAUGAGGAUCACCCAUGUAUGUUGGUAGGAUAUCGUUUGCAAAGCAAACGAGAAGGGCUAAGGUAGC [Mat - Same State NG 3 - JL Mod - D76] (Eterna round: R96, puzzle: Same State NG 3)”, the “apparent KD of MS2 coat protein” value (input ligand: FMN 200 uM) was 39.1 nM, the “apparent KD of MS2 coat protein” value under setting [4] was determined as 28.2 nM and the “apparent KD of MS2 coat protein” value (input ligand: none) was 43.9 nM.
“AUUCGUUUGAUAGGAUAUCACUUUACAUGAGGAUCACCCAUGUUCACCACGCUGGUUUCUUAUACUGAGAAGGAUCUUGAUGAC [JR_SSNG2_Sub010] (Eterna round: R96, puzzle: Same State NG 2)”: the “apparent KD of MS2 coat protein” value reads like this: (input ligand: FMN 200 uM) 19.5 nM; under setting [4], 17.1 nM; (input ligand: none) 31.3 nM.
On the same counts, the results for “GCCAACGCAUGAGGAUAUGGCACCUUAUUGGUGCCAGAAGGCGUGUGUAUUCACAUGAGGAUCACCCAUGUAUUAUAGUUGGCA [Fiskers NG1ss - 16] (Eterna round: R96, puzzle: Same State NG 1)” are 24.1 nM, 169 nM and 189 nM.
The matching figures for “GCCGCGUUUCGCGCCUACAUGAGGAUCACCCAUGUUUGUAGGCAGGAUAUCGUUUGCUUUGCGGGCGAGAAGGGCUGUUGUGGC [salish99_SSNG3_R04_017] (Eterna round: R96, puzzle: Same State NG 3)”: 35 nM, 28.9 nM and 38.8 nM.
On the same counts, the results for “ACAUGAGAGUGAGGAUAUACUGUACCUACAUGUGACAUGAGGAUCACCCAUGUGGUAAGUAUGACGUAGAAGGCACAGAUAUGU [Equivalance 79 - Jieux - Same State NG 2] (Eterna round: R96, puzzle: Same State NG 2)” are 33.1 nM, 118 nM and 182 nM.
With “GCUACCAAAUAAGCCAACAUGAGGAUCACCCAUGUAUGUUGGUAGGAUAUCGUAUGCAAAGCAUACGAGAAGGGCUAAGGUAGC [Mat - Same State NG 3 - JL Mod - D80] (Eterna round: R96, puzzle: Same State NG 3)”, the “apparent KD of MS2 coat protein” value by setting is: (input ligand: FMN 200 uM) 57.1 nM; under setting [4], 40.4 nM; (input ligand: none) 52.5 nM.
Take “GUGGCCCAGGCACAGGAUAUGUUUCUCGUAACAUGAGGAUCACCCAUGUGCCUAUGAGAUUUUAUGCAGAAGGGUGCACGCCACG [JL Atiinbe mod 01] (puzzle: Same State 2)”: the “apparent KD of MS2 coat protein” value is, setting by setting: under setting [1], 18.5 nM; under setting [2], 56 nM; under setting [3], 123 nM.
On the same counts, the results for “GGGCCAGCUUUUGCUGGGCCUUCGCUUGCACAUGAGGAUCACCCAUGUCGUGUACACGCUUCCUGCCCGUCUUGUUU [Photon Torp-19] (puzzle: Sensor for hsa-mir-208a)” are 24 nM, 15.3 nM and 24.6 nM.
On to “UGUUGUAUUACAGGAUAUCUAUUAUUUUUAUUUAGAGAAGGGUAUUCACAUGAGGAUCACCCAUGUAUAUACGAGGAAGAUGUG [JMF's solution 5] (Eterna round: R96, puzzle: Same State NG 1)”, for which the “apparent KD of MS2 coat protein” value under setting [4] worked out at 60.4 nM.
“AUAAAACAUGAGGAUCACCCAUGUCAACAAAGUCGAGGAUAUGGGCAAAUAAAAUUAGAACCAGAAGGCGAAUAAU [salish99_ss1_r3_020] (puzzle: Same State 1)”: the “apparent KD of MS2 coat protein” value by setting is: under setting [1], 34.4 nM; under setting [2], 330 nM; under setting [3], 379 nM.
As for “CAGCGCUGUCGAGAGGAUAUGCGGUGAUGGACAUGAGGAUCACCCAUGUUAGCGGUAGCAUUACGGUAGAAGGCUCUACAGCUGC [Soteed - 3] (puzzle: Same State 2)”, the “apparent KD of MS2 coat protein” value under setting [2] was found to be 24.7 nM.
Take “AGCCGAGACACAGGAUAUAGAUGUCUACAUGAGGAUCACCCAUGUAGCAACACGUGGUAGUGAUUCUAGAAGGGUGCUCGGCGC [Omei SS(NG)2 Cv10] (Eterna round: R96, puzzle: Same State NG 2)”: the “apparent KD of MS2 coat protein” value (input ligand: FMN 200 uM) stood at 13.1 nM, the “apparent KD of MS2 coat protein” value under setting [4] was found to be 20.5 nM and the “apparent KD of MS2 coat protein” value (input ligand: none) is 28.7 nM.
Take “AGAAUACAUGAGGAUCACCCAUGUCAACGUAGUCGAGGAUAUGGGCAGCCGUGAGGCGUACUAGAAGGCGAAGAGA [Mat - Same State 1 - Mod of JL - D6] (puzzle: Same State 1)”: the “apparent KD of MS2 coat protein” value is, setting by setting: under setting [1], 99.8 nM; under setting [2], 437 nM; under setting [3], 280 nM.
On the same counts, the results for “AGUAUACAUGAGGAUCACCCAUGUCAACGUAGUCGAGGAUAUGGGCAGCCGUGAGGCGUACCAGAAGGCGAAGAGA [Mat - Same State 1 - Mod of JL - D5] (puzzle: Same State 1)” are 24.5 nM, 50.5 nM and 68.6 nM.
With “GCUCGCACGAUGACCGACAUGAGGAUCACCCAUGUGUGUCGGUAGGAUAUCUAUAUUAAGGAUUUAGAGAAGGGCCCAGCGAGC [SameState NG3 #20] (Eterna round: R96, puzzle: Same State NG 3)”, the “apparent KD of MS2 coat protein” value is 68.3 nM (input ligand: FMN 200 uM), 68.5 nM under setting [4] and 69.3 nM (input ligand: none).
On the same counts, the results for “GUGGUCAGACAUGAGGAUCACCCAUGUGGAAUAAAUAAGGGAUAGGAUAUGGAAUAUAGGAUAUACCAGAAGGGUUGGUUGGUG (Eterna round: R96, puzzle: Same State NG 3)” are 107 nM, 87.6 nM and 95.1 nM.
